Test results from the RNAGym collection of RNA variant scans (doi:10.1021/acssynbio.7b00057).

B1: Pistol ribozyme (parent)
chain: GGGUCGUUGUUCCAUAAUCGCGUGGAUAUGGCACGCAAGUUUCUACCGGGCACCGUAAAUGUCCGACUGGAGCCGUUCGGGCGGCUAUAAACAGACCUCAGGCCCGAAGCGUGGCGGCACCUGCCGCCGGUGGUAAAAAAGAUCGGAAGAGCACACGUCU

Variants of: B1
Test: aptazyme ON/OFF ratio, guanine; higher = stronger switching; co-transcriptional cleavage with and without guanine

Variant | aptazyme ON/OFF ratio
U7G U8G U10C U11C C12A C13A | 1.3
U7G U8G U10C U11C C12A C13G | 1.23
U7G U8G U10C U11C C12A C13U | 1.22
U7G U10C C12U C13A | 1.04
U7G U10C C12U C13G | 1.06
U7G U10C C12U C13U | 1.07
U7G U8G U10G U11G C12G | 1.26
U7G U8G U10G U11G C12U | 1.36
U7G U8G U10G U11G C12A | 1.23
U7G U8G U10G C12G C13G | 1.32
U7G U8G U10G C12G C13U | 1.26
U7G U8G U10G C12G C13A | 1.21
U7G U8G U10C U11A C12A C13G | 1.12
U7G U8G U10C U11A C12A C13A | 1.08
U7G U8G U10C U11A C12A C13U | 1.14
U7G U10A U11G C13A | 1.16
U7G U10A U11G C13U | 1.22
U7G U10A U11G C13G | 1.14
U7G U8G U10G U11G C12A C13U | 1.33
U7G U8G U10G U11G C12A C13G | 1.03
U7G U8G U10G U11G C12A C13A | 1.25
U7G U8G U10G C12U C13A | 1
U7G U8G U10G C12U C13U | 1.32
U7G U8G U10G C12U C13G | 1.04

Variant | aptazyme ON/OFF ratio
U7G U8G G9U U11G C12G | 1.41
U7G U8G G9U U11G C12U | 1.45
U7G U8G U11A C12G C13G | 1.15
U7G U8G U11A C12G C13A | 1.11
U7G U8G U11A C12G C13U | 1.33
U7G U8G U10C U11G C12A C13G | 1.16
U7G U8G U10C U11G C12A C13A | 1.15
U7G U8G U10C U11G C12A C13U | 1.22
U7G U8G U10A U11A C12G C13A | 1.22
U7G U8G U10A U11A C12G C13U | 1.13
U7G U8G U10A U11A C12G C13G | 1.26
U7G U10A U11A C12U C13G | 1.13
U7G U10A U11A C12U C13U | 1.16
U7G U10A U11A C12U C13A | 1.09
U7G U10A U11C C12G | 1.3
U7G U10A U11C C12A | 1.16
U7G U10A U11C C12U | 1.05
U7G U8G U11G C12A C13U | 1.35
U7G U8G U11G C12A C13G | 1.21
U7G U8G U11G C12A C13A | 1.24
U7G U10A U11G C12A C13U | 1.11
U7G U10A U11G C12A C13G | 1.09
U7G U10A U11G C12A C13A | 1.06
U7G U8G U10A U11G C12U C13U | 1.22

Variant | aptazyme ON/OFF ratio
U7G U8G U10A U11G C12U C13A | 1.23
U7G U8G U10A U11G C12U C13G | 1.36
U7G U10A U11C | 1
U7G U10A U11G | 1.71
U7G U10A U11A | 2.39
U7G U10A U11A C12U | 1.16
U7G U10A U11A C12A | 1.07
U7G U10A U11A C12G | 1.1
U7G U8G U10A U11G C12A C13U | 1.37
U7G U8G U10A U11G C12A C13G | 1.15
U7G U8G U10A U11G C12A C13A | 1.05
U7G U8G U10A U11C C12A C13G | 1.23
U7G U8G U10A U11C C12A C13U | 1.47
U7G U8G U10A U11C C12A C13A | 1.34
U7G U8G U11G C12G C13U | 1.09
U7G U8G U11G C12G C13G | 1.21
U7G U8G U11G C12G C13A | 1.18
U7G U8G U10A U11G C13A | 1.18
U7G U8G U10A U11G C13U | 1.33
U7G U8G U10A U11G C13G | 1.18
U7G U8G G9U U11G C12U C13U | 1.27
U7G U8G G9U U11G C12U C13G | 1.2
U7G U8G G9U U11G C12U C13A | 1.07
U7G U10A U11G C12G | 1.21

Variant | aptazyme ON/OFF ratio
U7G U10A U11G C12U | 1.32
U7G U10A U11G C12A | 1.13
U7G U10A U11A C13G | 1.11
U7G U10A U11A C13A | 1.14
U7G U10A U11A C13U | 1.11
U7G U8G U10A C12U C13A | 1.16
U7G U8G U10A C12U C13G | 1.18
U7G U8G U10A C12U C13U | 1.09
U7G U8G U10G U11A C13A | 1.21
U7G U8G U10G U11A C13U | 1.24
U7G U8G U10G U11A C13G | 1.18
U7G U8G U10C U11C C12G C13G | 1.2
U7G U8G U10C U11C C12G C13U | 1.45
U7G U8G U10C U11C C12G C13A | 1.24
U7G U10A U11A C12G C13G | 1.16
U7G U10A U11A C12G C13U | 1.16
U7G U10A U11A C12G C13A | 1.05
U7G U8G U10C U11C C12U C13A | 1.29
U7G U8G U10C U11C C12U C13G | 1.34
U7G U8G U10C U11C C12U C13U | 1.4
U7G U8G U10G C12A C13G | 1.19
U7G U8G U10G C12A C13U | 1.4
U7G U8G U10G C12A C13A | 1.51
U7G U8G U10A C12A C13A | 1.18

Variant | aptazyme ON/OFF ratio
U7G U8G U10A C12A C13G | 1.3
U7G U8G U10A C12A C13U | 1.33
U7G U8G U10A C12G C13G | 1.2
U7G U8G U10A C12G C13A | 1.16
U7G U8G U10A C12G C13U | 0.978
U7G U8G U10A C12U | 1.45
U7G U8G U10A C12A | 1.28
U7G U8G U10A C12G | 1.29
U7G U8G U10C U11C C13U | 1.12
U7G U8G U10C U11C C13G | 1.07
U7G U8G U10C U11C C13A | 1.07
U7G U10A U11C C13A | 1.04
U7G U10A U11C C13U | 1.02
U7G U10A U11C C13G | 1.02
U7G U8G U10G U11C C12U C13G | 1.15
U7G U8G U10G U11C C12U C13A | 1.12
U7G U8G U10G U11C C12U C13U | 1.36
U7G U8G U10A U11C C12U C13U | 1.5
U7G U8G U10A U11C C12U C13G | 1.25
U7G U8G U10A U11C C12U C13A | 1.42
U7G U8G U11C C12A C13G | 1.15
U7G U8G U11C C12A C13A | 1.42
U7G U8G U11C C12A C13U | 1.26
U7G U8G U10C U11A C13A | 1.38

Variant | aptazyme ON/OFF ratio
U7G U8G U10C U11A C13G | 1.38
U7G U8G U10C U11A C13U | 1.47
U7G U8G U11C C12G | 1.15
U7G U8G U11C C12A | 1.31
U7G U8G U11C C12U | 1.37
U7G U10C C12A | 1.12
U7G U10C C12U | 1.2
U7G U10C C12G | 1.26
U7G U8G U10G U11G C12U C13U | 1.32
U7G U8G U10G U11G C12U C13G | 1.13
U7G U8G U10G U11G C12U C13A | 1.13
U7G U10A C12A C13A | 1.21
U7G U10A C12A C13U | 1.18
U7G U10A C12A C13G | 1.12
U7G U10A C12A | 1.21
U7G U10A C12U | 1.16
U7G U10A C12G | 1.22
U7G U8G U10C U11A C12G C13A | 1.17
U7G U8G U10C U11A C12G C13G | 1.23
U7G U8G U10C U11A C12G C13U | 1.27
U7G U8G U10C U11G | 1.56
U7G U8G U10C U11C | 2.2
U7G U8G U10C U11A | 1.74
U7G U8G U10C C12U C13A | 1.47

Variant | aptazyme ON/OFF ratio
U7G U8G U10C C12U C13G | 1.42
U7G U8G U10C C12U C13U | 1.39
U7G U8G U10A U11A C12A C13G | 1.22
U7G U8G U10A U11A C12A C13U | 1.21
U7G U8G U10A U11A C12A C13A | 1.31
U7G U8G U10C C13U | 1.81
U7G U8G U10C C13G | 1.17
U7G U8G U10C C13A | 1.33
U7G U10A U11C C12G C13G | 1.03
U7G U10A U11C C12G C13U | 1.11
U7G U10A U11C C12G C13A | 1.1
U7G U8G U11C C12U C13A | 1.38
U7G U8G U11C C12U C13G | 1.3
U7G U8G U11C C12U C13U | 1.44
U7G U10A C13G | 1.12
U7G U10A C13U | 1.16
U7G U10A C13A | 1.13
U7G U10C C12A C13G | 1.1
U7G U10C C12A C13U | 1.12
U7G U10C C12A C13A | 1.1
U7G U8G U10A C13U | 1.36
U7G U8G U10A C13G | 1.29
U7G U8G U10A C13A | 1.34
